Source: patent US20240092867A1 (UNIVERSITY OF CHICAGO, published 2024)

Experiments:
[1] = molecular target: T1, recombinant human vWF A2 domain (human, UniProt P04275 1498-1665); assay: ELISA, domain coated 50 nM
T1 construct: domain: A2
Procedure: (§1) ELISA was performed as previously reported1. […] After blocking with 2% BSA solution containing PBS-T, 1 μg/mL of recombinant human VEGF-A121 (PeproTech), recombinant human VEGF-A145 (R & D Systems), or recombinant human VEGF-A165 (PeproTech) was added. Bound VEGF-A was detected with 1 μg/mL of mouse anti-human VEGF-A antibody (clone: 26503, R & D systems). After 60 min of incubation, horseradish peroxidase (HRP) conjugated goat anti-mouse antibody (1:2000 dilution, Dako) was added and incubated for another 60 min. Color development and the absorbance measurement were done as described above.

[2] = molecular target: T2, recombinant human vWF A3 domain (human, UniProt P04275 1683-1874); assay: ELISA, domain coated 50 nM
T2 construct: domain: A3
Procedure: as §1

[3] = molecular target: T3, human plasma-derived vWF (human, UniProt P04275 764-2813); assay: SPR, vWF immobilised, GF flowed, 1:1 Langmuir fit
T3 construct: mature; also called plasma-derived purified vWF; von Willebrand factor
Procedure: A450 nm represents absorbance at 450 nm. Signals from VEGF-A121 served as a baseline, and bovine serum albumin (BSA) served as a negative control (n=4, mean±SD). […] Experimental curves were fitted with (C) 1:1 Langmuir fit model and (D) heterogeneous ligand-parallel reactions binding.
SPR assays were performed as described previously2. In brief, measurements were made with a Biacore X100 SPR system or Biacore 3000 SPR system (GE Healthcare). […] Recombinant human VEGF-A165, VEGF-A121, or PDGF-BB was flowed at increasing concentrations in the running buffer at 30 μL/min. The sensor chip was regenerated with glycine at pH 2 for every cycle.

[4] = molecular target: T4, recombinant laminin α3 2928-3150 protein (linker domain and LG4 domain) (human, UniProt Q16787 2928-3150); assay: SPR; α3 2928-3150 recombinant protein immobilised (~1000 RU), VEGF-A165 flowed at 0.325-10.4 nM; Langmuir fit [panel D]
T4 construct: range 2928-3150; Made in HEK-293F cells; also called laminin alpha 3 LG domain recombinant protein
T4 sequence: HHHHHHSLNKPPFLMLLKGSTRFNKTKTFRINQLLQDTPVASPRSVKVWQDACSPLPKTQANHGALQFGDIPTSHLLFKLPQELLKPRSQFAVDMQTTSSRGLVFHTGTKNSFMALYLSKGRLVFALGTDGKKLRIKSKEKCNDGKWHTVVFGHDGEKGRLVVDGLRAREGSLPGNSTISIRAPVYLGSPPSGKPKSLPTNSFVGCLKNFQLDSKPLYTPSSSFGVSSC
Description: Statistical analyses were done using the Mann-Whitney U test by comparing the signals obtained from the laminin domain- and the BSA-coated wells. *p<0.05, **p<0.01. […] A SPR chip was functionalized with the laminin α3₂₉₂₈₋₃₁₅₀ recombinant protein (˜1000 RU), and each GF was flowed over the chip at indicated concentrations. Curves represent the specific responses (in RU) to laminin. Experimental curves were fitted with Langmuir binding kinetics.
Because the GFs that bound to laminins have also been previously reported to bind to other ECM glycoproteins through HBDs, it was hypothesized that HBDs of laminins might be responsible for the interactions between GFs and laminin. To address this hypothesis, ELISA assays were repeated for VEGF-A165, PlGF-2 or FGF-2 in the presence of heparin added in excess (10 μM). […] To further confirm this, the inventors tested direct GF binding to the LG domains from human laminin α3, α4 and α5, within which HBDs of laminin were localized.
SPR analysis was performed as described previously². In brief, measurements were made with a Biacore 3000 SPR system (GE Healthcare). […] VEGF-A165, PDGF-BB, or PlGF-2 was flowed at increasing concentrations in the running buffer at 20 μL/min. The sensor chip was regenerated with 50 mM NaOH for every cycle.

B1: vascular endothelial growth factor (VEGF)-A165 (ligand, human, UniProt P15692-4 27-191, looked up)
chain: APMAEGGGQNHHEVVKFMDVYQRSYCHPIETLVDIFQEYPDEIEYIFKPSCVPLMRCGGCCNDEGLECVPTEESNITMQIMRIKPHQGQHIGEMSFLQHNKCECRPKKDRARQENPCGPCSERRKHLFVQDPQTCKCSCKNTDSRCKARQLELNERTCRCDKPRR
notes: mature; Purchased in mature form, not glycosylated
- binding result [1]: no binding (tested: 1 µg/mL)
- binding result [2]: no binding (tested: 1 µg/mL)
- Kd [3]: 27 nM
- Kd [4]: 1.47 nM
- koff [4]: 0.00663 s⁻¹
- kon [4]: 4.52e+06 M⁻¹ s⁻¹
